Experimental data: patent publication US20230201308A1, “TREATMENT OF CORONAVIRUS INFECTION WITH […]” (Eiger Biopharmaceuticals, Inc., priority 2020, published 2023)
Where two headings read alike, the source gives them in different places.

Test system: SARS-CoV-2
[1] = High risk population, Brazil, N = 698
[2] = High risk population, Brazil, N = 698 vs placebo N = 827
[3] = ITT population (Table 20), n=916 vs placebo 1003
[4] = ITT preliminary, n=916 vs placebo 1020

B1: pegylated interferon lambda-1a (protein)
chain: MKPTTTGKGCHIGRFKSLSPQELASFKKARDALEESLKLKNWSCSSPVFPGNWDLRLLQVRERPVALEAELALTLKVLEAAAGPALEDVLDQPLHTLHHILSQLQACIQPQPTAGPRPRGRLHHWLHRLQEAPKKESAGCLEASVTFNLFRLLTRDLKYVADGNLSLRTSTHPEST
modifications: PEG
notes: 180 mcg subcutaneous injection
- Hospitalization or ER (any duration) for COVID-19: total [1]: 76
- Hospitalization or ER >6 h for COVID-19: percentage [1]: (3.2%)
- Hospitalization or ER >6 h for COVID-19: total [1]: 22
- Mechanical ventilation: percentage [1]: (0.6%)
- Mechanical ventilation: total [1]: 4
- All cause ER visit >6 h, hospitalization, or death: Pr (Superiority) [2]: 0.981
- All cause ER visit >6 h, hospitalization, or death: RR (95% CrI), estimated treatment effect [2]: 0.64 (0.42, 0.97)
- All cause ER visit, hospitalization, or death: Pr (Superiority) [2]: 0.883
- All cause ER visit, hospitalization, or death: RR (95% CrI), estimated treatment effect [2]: 0.86 (0.68, 1.10)
- All cause death or hospitalization due to COVID-19: Pr (Superiority) [2]: 0.924
- All cause death or hospitalization due to COVID-19: RR (95% CrI), estimated treatment effect [2]: 0.69 (0.41, 1.14)
- Days of hospitalization: MD (95% CrI), estimated treatment effect [2]: −1.39 (−4.38, 1.20)
- Days of hospitalization: Pr (Superiority) [2]: 0.8509
- Days on mechanical ventilation: MD (95% CrI), estimated treatment effect [2]: −4.47 (−6.89, 3.09)
- Days on mechanical ventilation: Pr (Superiority) [2]: 0.9052
- Days to death for COVID-19: HR (95% CrI), estimated treatment effect [2]: 0.23 (0.01, 1.79)
- Days to death for COVID-19: Pr (Superiority) [2]: 0.9080
- Days to hospitalization for COVID-19: HR (95% CrI), estimated treatment effect [2]: 0.58 (0.33, 0.98)
- Days to hospitalization for COVID-19: Pr (Superiority) [2]: 0.9780
- Days to hospitalization or ER visit >6 h for COVID-19: HR (95% CrI), estimated treatment effect [2]: 0.47 (0.28, 0.76)
- Days to hospitalization or ER visit >6 h for COVID-19: Pr (Superiority) [2]: 0.9992
- Days to hospitalization or death for COVID-19: HR (95% CrI), estimated treatment effect [2]: 0.62 (0.35, 1.05)
- Days to hospitalization or death for COVID-19: Pr (Superiority) [2]: 0.9610
- Days to recovery: HR (95% CrI), estimated treatment effect [2]: 0.93 (0.83, 1.04)
- Days to recovery: Pr (Superiority) [2]: 0.8862
- Death due to COVID-19: Pr (Superiority) [2]: 0.845
- Death due to COVID-19: RR (95% CrI), estimated treatment effect [2]: 0.42 (0.05, 2.08)
- Death or hospitalization due to COVID-19: Pr (Superiority) [2]: 0.961
- Death or hospitalization due to COVID-19: RR (95% CrI), estimated treatment effect [2]: 0.63 (0.37, 1.05)
- Hospitalization for COVID-19 (excluding those resulting in death): Pr (Superiority) [2]: 0.928
- Hospitalization for COVID-19 (excluding those resulting in death): RR (95% CrI), estimated treatment effect [2]: 0.67 (0.39, 1.14)
- Hospitalization or ER (any duration) for COVID-19: Pr (Superiority) [2]: 0.991
- Hospitalization or ER (any duration) for COVID-19: RR (95% CrI), estimated treatment effect [2]: 0.72 (0.56, 0.95)
- Hospitalization or ER >6 h for COVID-19: Pr (Superiority) [2]: 0.999
- Hospitalization or ER >6 h for COVID-19: RR (95% CI), estimated treatment effect [2]: 0.49 (0.30, 0.78)
- Mechanical ventilation: Pr (Superiority) [2]: 0.717
- Mechanical ventilation: RR (95% CrI), estimated treatment effect [2]: 0.72 (0.21, 2.21)
- All cause ER visit >6 h, hospitalization, or death, % of patients [3]: (3.7%)
- All cause ER visit >6 h, hospitalization, or death, Pr (Superiority) [3]: 0.987
- All cause ER visit >6 h, hospitalization, or death, RR (95% CrI) vs placebo [3]: 0.64 (0.42, 0.95)
- All cause ER visit, hospitalization, or death, % of patients [3]: (13.5%)
- All cause ER visit, hospitalization, or death, Pr (Superiority) [3]: 0.831
- All cause ER visit, hospitalization, or death, RR (95% CrI) vs placebo [3]: 0.90 (0.72, 1.12)
- All cause death or hospitalization due to COVID-19, % of patients [3]: (2.6%)
- All cause death or hospitalization due to COVID-19, RR (95% CrI) vs placebo [3]: 0.66 (0.40, 1.07)
- Days of hospitalization, IRR (95% CrI) vs placebo [3]: −1.02 (−3.86, 1.37)
- Days on mechanical ventilation, IRR (95% CrI) vs placebo [3]: −4.47 (−6.89, 3.09)
- Days to death for COVID-19, HR (95% CrI) vs placebo [3]: 0.22 (0.01, 1.64)
- Days to hospitalization for COVID-19, HR (95% CrI) vs placebo [3]: 0.57 (0.33, 0.95)
- Days to hospitalization or ER visit >6 h for COVID-19, HR (95% CrI) vs placebo [3]: 0.47 (0.29, 0.73)
- Days to hospitalization or ER visit >6 h for COVID-19, Pr (Superiority) [3]: 0.999
- Days to hospitalization or death for COVID-19, HR (95% CrI) vs placebo [3]: 0.59 (0.35, 1.00)
- Days to recovery, HR (95% CrI) vs placebo [3]: 0.94 (0.85, 1.05)
- Death due to COVID-19, % of patients [3]: (0.1%)
- Death due to COVID-19, RR (95% CrI) vs placebo [3]: 0.40 (0.05, 1.95)
- Death or hospitalization due to COVID-19, % of patients [3]: (2.4%)
- Death or hospitalization due to COVID-19, RR (95% CrI) vs placebo [3]: 0.61 (0.36, 0.99)
- Hospitalization or ER (any duration) for COVID-19, % of patients [3]: (10.8%)
- Hospitalization or ER (any duration) for COVID-19, Pr (Superiority) [3]: 0.981
- Hospitalization or ER (any duration) for COVID-19, RR (95% CrI) vs placebo [3]: 0.78 (0.61, 0.99)
- Hospitalization or ER >6 h for COVID-19, % of patients [3]: (2.7%)
- Hospitalization or ER >6 h for COVID-19, Pr (Superiority) [3]: 0.999
- Hospitalization or ER >6 h for COVID-19, RR (95% CI) vs placebo [3]: 0.49 (0.30, 0.76)
- Mechanical ventilation, % of patients [3]: (0.4%)
- Mechanical ventilation, RR (95% CrI) vs placebo [3]: 0.66 (0.20, 2.03)
- Days to hospitalization for COVID-19, IQR (ITT preliminary, n=916): 3.0
- Days to hospitalization for COVID-19, Mean (ITT preliminary, n=916): 5.10
- Days to hospitalization for COVID-19, Median (ITT preliminary, n=916): 4.0
- Days to hospitalization or ER visit ≥6 h for COVID-19, IQR (ITT preliminary, n=916): 3.0
- Days to hospitalization or ER visit ≥6 h for COVID-19, Mean (ITT preliminary, n=916): 5.8
- Days to hospitalization or ER visit ≥6 h for COVID-19, Median (ITT preliminary, n=916): 4.0
- Days until death due to COVID-19, IQR (ITT preliminary, n=916): 16.0
- Days until death due to COVID-19, Mean (ITT preliminary, n=916): 22
- Days until death due to COVID-19, Median (ITT preliminary, n=916): 22.0
- Any cause Death, % of patients (ITT preliminary, n=916, 28 days): (0.3%)
- ER visits over 6 hrs, % of patients [4]: 0.7%
- Relative Reduction in Risk, Deaths [4]: 0.72
- Relative Reduction in Risk, ER visits over 6 hrs [4]: 0.68
- Relative Reduction in Risk, Hospitalizations [4]: 0.43
- Relative Reduction in Risk, Hospitalizations or ER visits over 6 hrs [4]: 0.50
- Death due to COVID-19, RR (95% CrI) vs placebo (ITT preliminary, n=916 vs placebo 1020, 28 days): 0.40 (0.05, 2.00)
